Measurements: patent publication US20180282719A1 (published 2018)
Residue numbers refer to the chain shown, from its start. Like-named read-outs stand apart in the source and are kept apart here. Each block holds one binder with its values, some of them ahead of it.

Tests used:
[1] = target: T1, recombinant soluble human IL-6 receptor (SR344) (human, UniProt P08887 20-344, biotinylated (sites not given) where immobilized via streptavidin or used in phage ELISA); assay: SPR Biacore T100, biotinylated SR344 on streptavidin chip (model of membrane-type IL-6 receptor), antibody 0.25 ug/mL as analyte, 37 C
T1 construct: also called soluble IL-6 receptor; membrane-type IL-6 receptor (when biotinylated and immobilized on the chip)
T1 sequence (looked up): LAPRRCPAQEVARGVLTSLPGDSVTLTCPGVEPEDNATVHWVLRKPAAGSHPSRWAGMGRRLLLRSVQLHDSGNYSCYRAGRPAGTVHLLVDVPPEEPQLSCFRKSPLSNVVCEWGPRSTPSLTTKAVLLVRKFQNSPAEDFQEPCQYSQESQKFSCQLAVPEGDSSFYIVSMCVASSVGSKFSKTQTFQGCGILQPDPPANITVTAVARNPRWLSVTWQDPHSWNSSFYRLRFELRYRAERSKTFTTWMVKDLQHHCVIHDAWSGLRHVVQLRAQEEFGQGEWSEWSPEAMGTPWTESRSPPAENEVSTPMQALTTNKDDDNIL
Method: (§1) Binding to the membrane-type IL-6 receptor was evaluated by evaluating binding to the IL-6 receptor immobilized on a sensor chip. SR344 was biotinylated in accordance with a method known among persons with ordinary skill in the art, and the biotinylated SR344 was immobilized on the sensor chip via streptavidin using the affinity between streptavidin and biotin. All the measurements were carried out at 37° C. The mobile phase buffer was 10 mM MES (pH 5.8), 150 mM NaCl and 0.05% TWEEN® 20 (polyoxyethelene sorbitan monolaurate).
(§2) The pH-dependently-binding clones were injected under the condition of pH 7.4 to allow them to bind to SR344, and then, the pH-dependent dissociation of each clone at the pH of the mobile phase, pH 5.8, was observed. The results are shown in FIG. 21 (results for Fv1-M71, Fv1-M73, Fv3-M71, and Fv3-M73 are shown in FIG. 21, while results for other clones are shown in FIGS. 17 and 19). Analyses were carried out in the same manner as in Example 10 and the pH dependencies of the dissociation rate constants of all of the eleven types of clones are shown in Table 12.

[2] = target: T1, recombinant soluble human IL-6 receptor …; assay: SPR Biacore T100, biotinylated SR344 on streptavidin chip (model of membrane-type IL-6 receptor), antibody as analyte, bound at pH 7.4, dissociation at pH 7.4, 37 C
Method: as §1, §2

[3] = target: T1, recombinant soluble human IL-6 receptor …; assay: SPR Biacore T100, biotinylated SR344 on streptavidin chip (model of membrane-type IL-6 receptor), antibody as analyte, bound at pH 7.4, dissociation at pH 5.8, 37 C
Method: as §1, §2

[4] = target: T1, recombinant soluble human IL-6 receptor …; assay: SPR Biacore T100, antibody captured by anti-IgG gamma chain F(ab)2, SR344 analyte, pH 7.4, 37 C
Method: (§3) Kinetic analyses of antigen-antibody reactions at pH 7.4 were carried out on the four types of antibodies, i.e., the humanized PM1 antibody (wild type: WT), and […], H3pI/L73-IgG1, Fv2-IgG1, and Fv4-IgG1 constructed in Examples 2 and 10, by using a Biacore T100™ surface plasmon resonance system (GE Healthcare) (buffer: 10 mM MES (pH 7.4), 150 mM NaCl, 0.05% TWEEN® 20 (polyoxyethelene sorbitan monolaurate)). Each antibody was bound on a sensor chip on which an anti-IgG γ chain specific F(ab)₂ (Pierce) was immobilized by amine coupling, and then, SR344 adjusted to a concentration of 9.8 to 40 nM was injected thereto as an analyte. The association to and dissociation from SR344 were observed on a real-time basis for the pH-dependent-binding clones. All the measurements were carried out at 37° C. Association rate constants kₐ (1/Ms) and dissociation rate constants kd (1/s) were calculated using Biacore T100™ Evaluation Software (GE Healthcare), and dissociation constants KD (M) were calculated on the basis of those values (Table 7).

[5] = target: T1, recombinant soluble human IL-6 receptor …; assay: SPR Biacore T100, biotinylated SR344 on streptavidin chip (model of membrane-type IL-6 receptor), antibody as analyte, 37 C
Method: as §1, §2

[6] = target: T1, recombinant soluble human IL-6 receptor …; assay: SPR Biacore T100, biotinylated SR344 on streptavidin chip (model of membrane-type IL-6 receptor), antibody 0.25 ug/mL as analyte, bound at pH 7.4, dissociation at pH 5.8, 37 C
Method: as §1, §2

[7] = target: T1, recombinant soluble human IL-6 receptor …; assay: SPR Biacore T100, biotinylated SR344 on streptavidin chip (model of membrane-type IL-6 receptor), antibody 0.25 ug/mL as analyte, bound at pH 7.4, dissociation at pH 7.4, 37 C
[8] = target: T1, recombinant soluble human IL-6 receptor …; assay: SPR Biacore T100, antibody captured by anti-IgG gamma chain F(ab)2, SR344 analyte, pH 7.4, 37 C; remark: listed apart in the source
Method: as §3
(§4) The association to and dissociation from SR344 were observed on a real-time basis using the same method as Example 10 for the eleven types of antibodies, humanized PM1 antibody (wild type: WT) and H3pI/L73-IgG1, Fv1-M71, Fv1-M73, Fv2-IgG1, Fv3-M71, Fv3-M73, Fv4-IgG1, Fv4-IgG2, Fv4-M58, and Fv4-M73, constructed as described above. The association rate constants kₐ (1/Ms) and dissociation rate constants kd. (1/s) were calculated by analysis in the same manner, and the dissociation constants KD (M) were calculated on the basis of those values (Table 11).

human IL-6 (Toray) [9] = target: T2, human IL-6 (Toray) (human, UniProt P05231 30-212); assay: SPR Biacore T100, antibody on protein A/G chip, human IL-6 analyte, pH 7.4, 37 C
T2 construct: also called human interleukin-6
Method: (§5) Kinetic analysis of antigen-antibody reactions at pH 5.5 and pH 7.4 was carried out using a Biacore T100™ surface plasmon resonance system (GE Healthcare) for the three types of antibodies prepared as mentioned above: Anti-IL6 wild type, Anti-IL6 clone 1, and Anti-IL-6 clone 2 (buffer: DPBS(−) (pH 7.4 or pH 5.5), 150 mM NaCl). The antibodies were bound to a sensor chip on which recomb-protein A/G (Pierce) was immobilized by amine coupling, and then human IL-6 (Toray) adjusted to an appropriate concentration was injected on the chip as an analyte. All the measurements were carried out at 37° C. Association rate constants kₐ (1/Ms) and dissociation rate constants kd (1/s) were calculated using Biacore T100™ Evaluation Software (GE Healthcare), and dissociation constants KD (M) were calculated based on those values (Table 14). Furthermore, the ratio of affinity at pH 5.5 and pH 7.4 was calculated for each clone to evaluate the pH-dependent binding.

human IL-6 (Toray) [10] = target: T2, human IL-6 (Toray); assay: SPR Biacore T100, antibody on protein A/G chip, human IL-6 analyte, 37 C, ratio of pH 5.5 to pH 7.4
Method: as §5

human IL-6 (Toray) [11] = target: T2, human IL-6 (Toray); assay: SPR Biacore T100, antibody on protein A/G chip, human IL-6 analyte, pH 5.5, 37 C
Method: as §5

human IL-6 (Toray) [12] = target: T2, human IL-6 (Toray); assay: SPR Biacore T100, antibody on protein A/G chip, human IL-6 analyte, 37 C
Method: as §5

[13] = target: T1, recombinant soluble human IL-6 receptor …; assay: SPR Biacore T100, biotinylated SR344 on streptavidin chip (model of membrane-type IL-6 receptor), antibody as analyte, bound at pH 7.4, dissociation at pH 5.8, 37 C; remark: listed apart in the source
Method: as §1, §2

[14] = target: T1, recombinant soluble human IL-6 receptor …; assay: SPR Biacore T100, biotinylated SR344 on streptavidin chip (model of membrane-type IL-6 receptor), antibody as analyte, bound at pH 7.4, dissociation at pH 7.4, 37 C; remark: listed apart in the source
Method: as §1, §2

[15] = target: T1, recombinant soluble human IL-6 receptor …; assay: SPR Biacore T100, antibody captured by anti-IgG gamma chain F(ab)2, SR344 analyte, pH 7.4, 37 C; remark: listed apart in the source
Method: as §3, §4

[16] = target: T1, recombinant soluble human IL-6 receptor …; assay: SPR Biacore T100, biotinylated SR344 on streptavidin chip (model of membrane-type IL-6 receptor), antibody as analyte, 37 C; remark: listed apart in the source
Method: as §1, §2

B2: Anti-IL6 wild type (antibody, human IgG1, kappa, V domains shown)
VH: EVQLVESGGKLLKPGGSLKLSCAASGFTFSSFAMSWFRQSPEKRLEWVAEISSGGSYTYYPDTVTGRFTISRDNAKNTLYLEMSSLRSEDTAMYYCARGLWGYYALDYWGQGTSVTVSS
VL: QIVLIQSPAIMSASPGEKVTMTCSASSSVSYMYWYQQKPGSSPRLLIYDTSNLASGVPVRFSGSGSGTSYSLTISRMEAEDAATYYCQQWSGYPYTFGGGTKLEIKR
notes: Antibody of WO 2004/039826, rebuilt and tested here; also called anti-IL-6 antibody including the H chain (WT) and L chain (WT)
Kd (human IL-6 (Toray) [9]): 0.0191 nM | koff (human IL-6 (Toray) [9]): 0.000391 s⁻¹ | kon (human IL-6 (Toray) [9]): 2.05e+07 M⁻¹ s⁻¹ | KD (pH 5.5)/KD (pH 7.4) (human IL-6 (Toray) [10]): 0.8 | Kd (human IL-6 (Toray) [11]): 0.0161 nM | koff (human IL-6 (Toray) [11]): 0.000245 s⁻¹ | kon (human IL-6 (Toray) [11]): 1.52e+07 M⁻¹ s⁻¹

B3: Anti-IL6 clone 1 (antibody, human IgG1, kappa, V domains shown)
VH: B2 VH with F32H, Y60H, D62H, Y103H
VL: B2 VL with L53H, Q89H, Y93H
notes: H chain (c1) / L chain (c1)
Kd (human IL-6 (Toray) [9]): 0.438 nM | koff (human IL-6 (Toray) [9]): 0.00471 s⁻¹ | kon (human IL-6 (Toray) [9]): 1.07e+07 M⁻¹ s⁻¹ | KD (pH 5.5)/KD (pH 7.4) (human IL-6 (Toray) [10]): 10.3 | pH-dependent binding ability relative to WT (human IL-6 (Toray) [12]): > 10 fold | Kd (human IL-6 (Toray) [11]): 4.52 nM | koff (human IL-6 (Toray) [11]): 0.00926 s⁻¹ | kon (human IL-6 (Toray) [11]): 2.05e+06 M⁻¹ s⁻¹

Next, values leading:

kd (pH 5.8)/kd (pH 7.4) [1]: 7.18 | koff [2]: 0.00034 s⁻¹ | koff [3]: 0.0024 s⁻¹ | Kd [4]: 2 nM | koff [4]: 0.00077 s⁻¹ | kon [4]: 390000 M⁻¹ s⁻¹ | kd (pH 5.8)/kd (pH 7.4) [5]: 7.18 | koff [6]: 0.0024 s⁻¹ | koff [7]: 0.00034 s⁻¹ | Kd [8]: 2 nM | koff [8]: 0.00077 s⁻¹ | kon [8]: 390000 M⁻¹ s⁻¹
B1: Fv2-IgG1 (antibody, V domains shown)
VH: QVQLQESGPGLVKPSETLSLTCAVSGYSISHDHAWSWVRQPPGEGLEWIGHISYSGITNYNPHLQDRVTISRDTSKNQFSLKLSSVTAADTAAYYCARFLARITAHDHWGEGTLVTVSS
VL: DIQMTQSPSSLSASVGDSVTITCQASQDISSHLNWYQQKPGKAPELLIYYGSHLHSGVPSRFSGSGSGTDFTFTISSLEAEDAATYYCGQGNRLPYTFGQGTKVEIE
notes: VH1-IgG1 as H chain and L82 as L chain

koff [2]: 0.00051 s⁻¹ | koff [13]: 0.0051 s⁻¹ | koff [14]: 0.00051 s⁻¹ | koff [3]: 0.0051 s⁻¹ | Kd [15]: 1.4 nM | koff [15]: 0.001 s⁻¹ | kon [15]: 750000 M⁻¹ s⁻¹ | kd (pH 5.8)/kd (pH 7.4) [5]: 10.1 | kd (pH 5.8)/kd (pH 7.4) [16]: 10.1 | Kd [8]: 1.4 nM | koff [8]: 0.001 s⁻¹ | kon [8]: 750000 M⁻¹ s⁻¹
B4: Fv4-M73 (antibody)
heavy: QVQLQESGPGLVKPSETLSLTCAVSGHSISHDHAWSWVRQPPGEGLEWIGFISYSGITNYNPSLQGRVTISRDNSKNTLYLQMNSLRAEDTAVYYCARSLARTTAMDYWGEGTLVTVSSASTKGPSVFPLAPSSKSTSGGTAALGCLVKDYFPEPVTVSWNSGALTSGVHTFPAVLQSSGLYSLSSVVTVPSSNFGTQTYTCNVDHKPSNTKVDKTVERKSCVECPPCPAPPVAGPSVFLFPPKPKDTLMISRTPEVTCVVVDVSQEDPEVQFNWYVDGVEVHNAKTKPREEQFNSTFRVVSVLTVVHQDWLNGKEYKCKVSNKGLPAPIEKTISKTKGQPREPQVYTLPPSQEEMTKNQVSLTCLVKGFYPSDIAVEWESNGQPENNYKTTPPMLDSDGSFFLYSKLTVDKSRWQEGNVFSCSVMHEALHAHYTQKSLSLSP
light: DIQMTQSPSSLSASVGDSVTITCQASTDISSHLNWYQQKPGKAPELLIYYGSHLLSGVPSRFSGSGSGTDFTFTISSLEAEDAATYYCGQGNRLPYTFGQGTKVEIERTVAAPSVFIFPPSDEQLKSGTASVVCLLNNFYPREAKVQWKVDNALQSGNSQESVTEQDSKDSTYSLSSTLTLSKADYEKHKVYACEVTHQGLSSPVTKSFNRGEC
notes: VH3-M73 / VL3-CK
